The text below walks through data of patent publication US20040043420A1, “Method of identifying conformation-sensitive binding peptides and uses thereof” (priority 2003, published 2004).

In assay [1] the target is T1, ER α (UniProt P03372 1-595, limits assumed).
T1 construct: also called estrogen receptor α; ERα-ERE
T1 sequence (looked up): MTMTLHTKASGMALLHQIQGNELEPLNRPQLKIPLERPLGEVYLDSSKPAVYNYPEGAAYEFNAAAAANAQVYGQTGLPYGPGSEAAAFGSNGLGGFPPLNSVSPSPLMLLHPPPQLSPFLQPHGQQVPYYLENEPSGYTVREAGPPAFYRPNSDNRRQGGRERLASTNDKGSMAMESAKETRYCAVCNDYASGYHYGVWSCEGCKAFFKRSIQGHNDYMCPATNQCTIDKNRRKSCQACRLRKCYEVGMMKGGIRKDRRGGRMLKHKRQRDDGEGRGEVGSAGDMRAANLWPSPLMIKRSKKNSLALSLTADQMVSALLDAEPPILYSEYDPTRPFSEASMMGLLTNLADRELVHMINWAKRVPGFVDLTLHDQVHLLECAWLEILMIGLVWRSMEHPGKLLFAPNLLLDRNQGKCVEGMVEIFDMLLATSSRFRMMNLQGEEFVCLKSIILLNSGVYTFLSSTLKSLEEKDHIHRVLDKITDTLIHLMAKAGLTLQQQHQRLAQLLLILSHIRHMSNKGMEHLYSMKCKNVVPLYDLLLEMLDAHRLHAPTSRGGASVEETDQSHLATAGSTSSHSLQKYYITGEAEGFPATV
Briefly: phage isolated on ERα-ERE; Raloxifen.

Assay [2] has as its target T2, ER β (UniProt Q92731 1-530, limits assumed).
T2 construct: In vitro; also called estrogen receptor β; ERβ-ERE
Briefly: peptide probe binding to ERβ, Estriol.

The target of assay [3] is T2, ER β. Briefly: peptide probe binding to ERβ, Raloxifene.
For assay [4], the target named is T2, ER β. Briefly: peptide probe binding to ERβ, Clomiphene.
The target of assay [5] is T1, ER α. Briefly: peptide probe binding to ERα, 4-OH Tamoxifen.
For assay [6], the target named is T1, ER α. As to the kind of experiment: peptide probe binding to ERα, ICI 182,780.
In assay [7] the target is T2, ER β. Briefly: peptide probe binding to ERβ, 17β-Estradiol.
In assay [8] the target is T2, ER β. Briefly: peptide probe binding to ERβ, GW 7604.
Assay [9] concerns the target T1, ER α. Briefly: peptide probe binding to ERα, Diethylstilbesterol.
Assay [10] concerns the target T2, ER β. As to the kind of experiment: phage ELISA, ICI 182,780 1 µM. (In general: An ELISA detects its analyte on a solid surface through an enzyme-linked reagent.)
The target of assay [11] is T3, ER α, P03372.
T3 chain: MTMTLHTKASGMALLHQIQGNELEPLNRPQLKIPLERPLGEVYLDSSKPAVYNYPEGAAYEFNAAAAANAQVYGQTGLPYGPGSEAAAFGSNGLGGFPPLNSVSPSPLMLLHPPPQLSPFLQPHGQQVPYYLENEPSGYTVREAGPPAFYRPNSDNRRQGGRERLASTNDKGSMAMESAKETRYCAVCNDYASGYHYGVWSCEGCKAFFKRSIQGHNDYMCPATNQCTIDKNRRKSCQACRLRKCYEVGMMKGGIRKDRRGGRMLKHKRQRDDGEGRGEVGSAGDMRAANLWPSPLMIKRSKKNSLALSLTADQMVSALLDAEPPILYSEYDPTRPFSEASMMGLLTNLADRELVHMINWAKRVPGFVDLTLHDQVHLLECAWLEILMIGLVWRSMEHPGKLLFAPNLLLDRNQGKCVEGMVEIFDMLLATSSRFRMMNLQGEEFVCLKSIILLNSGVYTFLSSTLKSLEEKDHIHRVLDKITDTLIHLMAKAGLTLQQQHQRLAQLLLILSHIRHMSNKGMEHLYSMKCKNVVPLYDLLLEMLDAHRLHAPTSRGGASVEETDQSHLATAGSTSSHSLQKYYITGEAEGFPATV
As to the kind of experiment: peptide probe binding to ERα, Estriol.

Assay [12] deals with T3, ER α, P03372. As to the kind of experiment: peptide probe binding to ERα, 4-OH Tamoxifen.
For assay [13], the target named is T3, ER α, P03372. As to the kind of experiment: peptide probe binding to ERα, Diethylstilbesterol.
The target in assay [14] is T3, ER α, P03372. As to the kind of experiment: peptide probe binding to ERα, Raloxifene.
Assay [15] deals with T3, ER α, P03372. As to the kind of experiment: peptide probe binding to ERα, GW7604.
Assay [16] addresses T3, ER α, P03372. As to the kind of experiment: peptide probe binding to ERα, Buffer.
The target in assay [17] is T3, ER α, P03372. Briefly: peptide probe binding to ERα, Clomiphene.
In assay [18] the target is T3, ER α, P03372. As to the kind of experiment: peptide probe binding to ERα, 17α-Estradiol.
In assay [19] the target is T3, ER α, P03372. Briefly: peptide probe binding to ERα, ICI 182,780.
In assay [20] the target is T3, ER α, P03372. Briefly: peptide probe binding to ERα, 17β-Estradiol.
Assay [21] addresses T3, ER α, P03372. As to the kind of experiment: peptide probe binding to ERα, Nafoxidine.
The target of assay [22] is T1, ER α. Briefly: phage isolated on ERα-ERE; Tamoxifen.

T2 sequence (Q92731 whole entry): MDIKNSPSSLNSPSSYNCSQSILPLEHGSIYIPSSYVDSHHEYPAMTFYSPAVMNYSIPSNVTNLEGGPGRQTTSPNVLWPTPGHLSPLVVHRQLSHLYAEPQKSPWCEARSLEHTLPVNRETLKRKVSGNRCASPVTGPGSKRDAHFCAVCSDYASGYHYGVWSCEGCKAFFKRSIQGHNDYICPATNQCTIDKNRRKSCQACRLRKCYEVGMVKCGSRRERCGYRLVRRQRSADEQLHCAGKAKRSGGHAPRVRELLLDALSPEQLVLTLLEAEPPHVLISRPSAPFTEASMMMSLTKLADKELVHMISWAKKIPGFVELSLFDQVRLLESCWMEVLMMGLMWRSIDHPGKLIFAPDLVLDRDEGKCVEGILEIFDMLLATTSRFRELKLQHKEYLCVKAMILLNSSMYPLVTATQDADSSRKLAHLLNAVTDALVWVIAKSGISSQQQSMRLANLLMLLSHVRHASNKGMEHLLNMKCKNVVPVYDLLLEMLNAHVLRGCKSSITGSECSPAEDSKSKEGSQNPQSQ

For SRLCFGDWCMLGGVDVLSR [1R], the binding result in [1] is listed as “binds”.
SSWDMHQFFWEGVSR (also called AB3) [α/β III]: the Equiv. in assay [2] is -57%; in assay [3], 77%; in [4] it was 34%; in assay [5], 100%; in assay [6], -100%; in assay [7], -71%. Besides, the Equiv. is -86% in [8] and -53% in [9].
With SREWEDGFGGRWLSR (also called β I; B1) [4T-β], in assay [10], the “phage ELISA grade” value worked out at 0. For the same molecule, the Equiv. in [3] was -53%; in assay [4], -62%.
Regarding SSLNMVVDTPWCGKWVCSR [2R], in assay [1], the binding result is listed as “binds”.
Take SSLTSRDFGSWYASR (modifications not checked) [phage 5 (Table 2)]: the Equiv. in [11] was found to be 62%; in assay [12], 38%; in [13] it was 69%; in assay [14] it was 44%; in assay [15], 35%; in assay [16], 0%. Moreover, the Equiv. worked out at 56% in assay [17]; 80% in assay [18]; 56% in assay [19]; 100% in [20]; 32% in assay [21].
Regarding SSLDLSQFPMTASFLRESR (also called β II; B2) [35E-β], in assay [10], the “phage ELISA grade” value is 0.
Take SRVFGVSGGEVVLINGSSR [T3-11]: the binding result in [22] is given as “binds”.
